Laboratory results: the DeepSol protein solubility set

Assay: soluble on expression in E. coli; label from the status in PepcDB or PDB records

Which “soluble on expression in E. coli” value does the source give for “GSDQVQKVDQYLYHMRLSDETLLEISKRFRKEMEKGLGATTHPTAAVKMLPTFVRSTPDGTEHGEFLALDLGGTNFRVLWVKVTDNGLQKVEMENQIYAIPEDIMRGSGTQLFDHIAECLANFMDKLQIKDKKLPLGFTFSFPCHQTKLDESFLVSWTKGFKSSGVEGRDVVALIRKAIQRRGDFDIDIVAVVNDTVGTMMTCGYDDHNCEIGLIVGTGSNACYMEEMRHIDMVEGDEGRMCINMEWGAFGDDGSLNDIRTEFDQEIDMGSLNPGKQLFEKMISGMYMGELVRLILVKMAKEELLFGGKLSPELLNTGRFETKDISDIEGEKDGIRKAREVLMRLGLDPTQEDCVATHRICQIVSTRSASLCAATLAAVLQRIKENKGEERLRSTIGVDGSVYKKHPHFAKRLHKTVRRLVPGCDVRFLRSEDGSGKGAAMVTAVAYRLADQHRARQKTLEHLQLSHDQLLEVKRRMKVEMERGLSKETHASAPVKMLPTYVCATPDGTEKGDFLALDLGGTNFRVLLVRVRNGKWGGVEMHNKIYAIPQEVMHGTGDELFDHIVQCIADFLEYMGMKGVSLPLGFTFSFPCQQNSLDESILLKWTKGFKASGCEGEDVVTLLKEAIHRREEFDLDVVAVVNDTVGTMMTCGFEDPHCEVGLIVGTGSNACYMEEMRNVELVEGEEGRMCVNMEWGAFGDNGCLDDFRTEFDVAVDELSLNPGKQRFEKMISGMYLGEIVRNILIDFTKRGLLFRGRISERLKTRGIFETKFLSQIESDCLALLQVRAILQHLGLESTCDDSIIVKEVCTVVARRAAQLCGAGMAAVVDRIRENRGLDALKVTVGVDGTLYKLHPHFAKVMHETVKDLAPKCDVSFLQSEDGSGKGAALITAVACRIREAGQ” here?
The value was “soluble”.

For “GSDSAITLWQFLLQLLQKPQNKHMICWTSNDGQFKLLQAEEVARLWGIRKNKPNMNYDKLSRALRYYYVKNIIKKVNGQKFVYKFVSYPEILNMDPMTVGRIEGDCESLNFSEVSSSSKDVENGGKDKPPQPGAKTSSRNDYIHSGLYSSFTLNSLN”, which “soluble on expression in E. coli” value is on record?
The value was “soluble”.

With “GSERVNYKPGMRVLTKMSGFPWWPSMVVTESKMTSVARKSKPKRAGTFYPVIFFPNKEYLWTGSDSLTPLTSEAISQFLEKPKPKTASLIKAYKMAQSTPDLDSLSVPS” as the sequence, how does the “soluble on expression in E. coli” value read?
Its value is “soluble”.

Which “soluble on expression in E. coli” value does the source give for “GSHMAIDENKQKALAAALGQIEKQFGKGSIMRLGEDRSMDVETISTGSLSLDIALGAGGLPMGRIVEIYGPESSGKTTLTLQVIAAAQREGKTCAFIDAEHALDPIYARKLGVDIDNLLCSQPDTGEQALEICDALARSGAVDVIVVDSVAALTPKAEIEGEIGDSHMGLAARMMSQAMRKLAGNLKQSNTLLIFINQIRMKIGVMFGNPETTTGGNALKFYASVRLDIRRIGAVKEGENVVGSETRVKVVKNKIAAPFKQAEFQILYGEGINFYGELVDLGVKEKLIEKAGAWYSYKGEKIGQGKANATAWLKDNPETAKEIEKKVRELLLSNPNSTPDFSVDDSEGVAETNEDF” here?
Its value is “soluble”.

For “GSHMASADLVSSCKDKLAYFRIKELKDILNQLGLPKQGKKQDLIDRVLALLTDEQGQRHHGWGRKNSLTKEAVAKIVDDTYRKMQIQCAPDLATRSHSGSDFSFRPIEEA”, which “soluble on expression in E. coli” value is on record?
Its value is “soluble”.

For “GSHMDLETLRARREAVLSLCARHGAVRVRVFGSVARGEAREDSDLDLLVAFEEGRTLLDHARLKLALEGLLGVRVDIVSERGLAPRLREQVLREAIPL”, which “soluble on expression in E. coli” value is on record?
Its value is “soluble”.

Which “soluble on expression in E. coli” value does the source give for “GSHMERPESELIRQSWRVVSRSPLEHGTVLFARLFALEPSLLPLFQYNGRQFSSPEDSLSSPEFLDHIRKVMLVIDAAVTNVEDLSSLEEYLTSLGRKHRAVGVRLSSFSTVGESLLYMLEKSLGPDFTPATRTAWSRLYGAVVQAMSRGWDGE” here?
Its value is “soluble”.

With “GSHMIASLSDSVSNAREERMALRQEQEQLQSRIQSLMQRAPVWLAAQNSLNQLSEQCGEEFTSSQDVTEYLQQLLEREREAIVERDEVGARKNAVDEEIERLSQPGGSEDQRLNALAERFGGVLLSEIYDDVSLEDAPYFSALYGPSRHAIVVPDLSQVTEHLEGLTDCPEDLYLIEGDPQSFDDSVFSVDELEKAVVVKIADRQWRYSRFPEVPLFGRAARESRIESLHAEREVLSERFATLSFDVQKTQRLHQAFSRFIGSHLAVAFESDPEAEIRQLNSRRVELERALSNHENDNQQQR” as the sequence, how does the “soluble on expression in E. coli” value read?
The value was “soluble”.

For “GSHMKHTELRAAVLDALEKHDTGATFFDGRPAVFDEADFPAVAVYLTGAEYTGEELDSDTWQAELHIEVFLPAQVPDSELDAWMESRIYPVMSDIPALSDLITSMVASGYDYRRDDDAGLWSSADLTYVITYEM”, which “soluble on expression in E. coli” value is on record?
Its value is “soluble”.

With “GSHMLGERLGIPAPRRIEAFDNSNIYGADPVSALVVFLDGKPAKKEYRKYKVKTVAGPNDYETMREVVRRRYTRVLKEGLPLPDLIIIDGGKGHLSAVRDVLENELGLDVPLAGLAKDEKHRTSELLAGDPPDVVPLDRQSQEFYLLQRIQDEVHRFAVMFHRKTRQKTMFHSVLDDIPGVGEKRKKALLNYFGSVKKMKEATVEELQRANIPRAVAEKIYEKLHE” as the sequence, how does the “soluble on expression in E. coli” value read?
Its value is “soluble”.

With “GSHMNGEPDIAQLKGLSPSQRQAYAVQLKNRGNHFFTAKNFNEAIKYYQYAIELDPNEPVFYSNISACYISTGDLEKVIEFTTKALEIKPDHSKALLRRASANESLGNFTDAMFDLSVLSLNGDFDGASIEPMLERNLNKQAMKVLNENLSKDEGRGSQVLPSNTSLASFFGIFDSHLEVSSVNTSSNYDTAYALLSDALQRLYSATDEGYLVANDLLTKSTDMYHSLLSANTVDDPLRENAALALCYTGIFHFLKNNLLDAQVLLQESINLHPTPNSYIFLALTLADKENSQEFFKFFQKAVDLNPEYPPTYYHRGQMYFILQDYKNAKEDFQKAQSLNPENVYPYIQLACLLYKQGKFTESEAFFNETKLKFPTLPEVPTFFAEILTDRGDFDTAIKQYDIAKRLEEVQEKIHVGIGPLIGKATILARQSSQDPTQLDEEKFNAAIKLLTKACELDPRSEQAKIGLAQLKLQMEKIDEAIELFEDSAILARTMDEKLQATTFAEAAKIQKRLRADPIISAKMELTLARYRAKGML” as the sequence, how does the “soluble on expression in E. coli” value read?
The value was “soluble”.

For “GSHMNRFLTSIVAWLRAGYPEGIPPTDSFAVLALLCRRLSHDEVKAVANELMRLGDFDQIDIGVVITHFTDELPSPEDVERVRARLAAQGWPLDDVRDREEHA”, which “soluble on expression in E. coli” value is on record?
Its value is “soluble”.

With “GSHMPSRRMLHTMIRVGDLDRSIKFYTERLGMKVLRKWDVPEDKYTLVFLGYGPEMSSTVLELTYNYGVTSYKHDEAYGHIAIGVEDVKELVADMRKHDVPIDYEDESGFMAFVVDPDGYYIELLNEKTMMEKAEADMKEQGTA” as the sequence, how does the “soluble on expression in E. coli” value read?
The value was “soluble”.

With “GSHMQTHAARMRTFMYWPSSVPVQPEQLASAGFYYVGRNDDVKCFCCDGGLRCWESGDDPWVEHAKWFPRCEFLIRMKGQEFVDEIQGRYPHLLEQLLSTS” as the sequence, how does the “soluble on expression in E. coli” value read?
The value was “soluble”.

Which “soluble on expression in E. coli” value does the source give for “GSHMRIPATIKKKMALPPATPVFTGEKKVEETKITAAIYDEKSVEFKELEVGELESVVRSALALNKKLWIDVVGVHDESLIAKICEFLGIHPLAAEDILNTAQRVKIEDYDDHLFLVLKILLYNETLEIDQLSLVLKKNLVATFEEREYWILDSIRSRLKSGGRMRKLAGDYLAYTILDAVVDSYFEALLKISDEIEVLEDEVVSGDSTLIGKIHSLKREILAFRNAVWPLRDVLSFFTRVEHELIGEEVKVYYRDVYDHAVRLME” here?
Its value is “soluble”.

Which “soluble on expression in E. coli” value does the source give for “GSHMRPQGATVSLWETVQKWREYRRQCQRSLTEDPPPATDLFCNRTFDEYACWPDGEPGSFVNVSCPWYLPWASSVPQGHVYRFCTAEGLWLQKDNSSLPWRDLSECEESKRGERSSPEEQLLFLY” here?
Its value is “soluble”.

Which “soluble on expression in E. coli” value does the source give for “GSHMSRILAVHASPRGERSQSRRLAEVFLAAYREAHPQARVARREVGRVPLPAVTEAFVAAAFHPQPEQRSLAMQADLALSDQLVGELFDSDLLVISTPMYNFSVPSGLKAWIDQIVRLGVTFDFVLDNGVAQYRPLLRGKRALIVTSRGGHGFGPGGENQAMNHADPWLRTALGFIGIDEVTVVAAEGEESGGRSFEDSCDEAEQRLLALARSA” here?
Its value is “soluble”.

With “GSHMTETVPLILLVPKSRREDLEKAQLAERLRSQFFIDYGVRLPEVLLRDGEGLDDNSIVLLINEIRVEQFTVYFDLMRVVNYSDEVVSFGINPTIHQQGSSQYFWVTHEEGEKLRELGYVLRNALDELYHCLAVTLARNVNEYFGIQETKHMLDQLEAKFPDLLKEVLRHATVQRISEVLQRLLSERVSVRNMKLIMEALALWAPREKDVINLVEHIRGAMARYICHKFANGGELRAVMVSAEVEDVIRKGIRQTSGSTFLSLDPEASANLMDLITLKLDDLLIAHKDLVLLTSVDVRRFIKKMIEGRFPDLEVLSFGEIADSKSVNVIKTI” as the sequence, how does the “soluble on expression in E. coli” value read?
The value was “soluble”.

With “GSHMTGISRETSSDVALASHILTALREKQAPELSLSSQDLELVTKEDPKALAVALNWDIKKTETVQEACERELALRLQQTQSLHSLRSISASKASPPGDLQNPKRARQDPT” as the sequence, how does the “soluble on expression in E. coli” value read?
The value was “soluble”.

With “GSHMTSFLHAYFTRLHCQPLGVPTVEALRTLHLAHNCAIPFENLDVLLPREIQLDETALEEKLLYARRGGYCFELNGLFERALRDIGFNVRSLLGRVILSHPASLPPRTHRLLLVDVEDEQWIADVGFGGQTLTAPLRLQAEIAQQTPHGEYRLMQEGSTWILQFRHHEHWQSMYCFDLGVQQQSDHVMGNFWSAHWPQSHFRHHLLMCRHLPDGGKLTLTNFHFTRYHQGHAVEQVNVPDVPSLYQLLQQQFGLGVNDVKHGFTEAELAAVMAAFDTHPEAGK” as the sequence, how does the “soluble on expression in E. coli” value read?
The value was “soluble”.

Which “soluble on expression in E. coli” value does the source give for “GSHMVMNTHPYQSEAVSDVWSLSKTSMTFQPKKASLQPLTISLDELFSSRGEFISVGGNGRMSHKEAILLGLRYKKLYNQARVKYSL” here?
Its value is “soluble”.

For “GSHSMKYFYTSMSRPGRGQPRFIAVGYVDDTQFVRFDSDAASQRMEPRAPWVEQEGPEYWDRETRNMKTETQNAPVNLRTLLRYYNQSEAGSHTLQRMVGCDLGPDGRLLRGYEQYAYDGKDYIALNEDLRSWTAADVAAQNTQRKWEAADVAESMRAYLEGQCVEWLPRYLEKGKETLQRTDPPKTHVTHHPVSDHEATLRCWALGFYPAEITLTWQRDGEDQTQDTELVETRPAGDGTFQKWAAVVVPSGEEQRYTCHVQHEGLPKPHTLKWEPHH”, which “soluble on expression in E. coli” value is on record?
Its value is “soluble”.

For “GSMAISDPPNSSSVPLEGNGTILVKGNVTIIVEGNADITVKGDATTLVEGNQTNTVNGNLSWKVAGTVDWDVGGDWTEKMASMSSISSGQYTIDGSRIDIGSVEGYIPEAPRDGQAYVRKDGEWVFLSTFLVEHHHHHH”, which “soluble on expression in E. coli” value is on record?
The value was “soluble”.

With “GSMAPLGGAPRLVLLFSGKRKSGKDFVTEALQSRLGADVCAVLRLSGPLKEQYAQEHGLNFQRLLDTSTYKEAFRKDMIRWGEEKRQADPGFFCRKIVEGISQPIWLVSDTRRVSDIQWFREAYGAVTQTVRVVALEQSRQQRGWVFTPGVDDAESECGLDNFGDFDWVIENHGVEQRLEEQLENLIEFIRSRLKLHHHHHH” as the sequence, how does the “soluble on expression in E. coli” value read?
The value was “soluble”.

Which “soluble on expression in E. coli” value does the source give for “GSNGMSQLPAPVSVESSWRYIDTQGQIHGPFTTQMMSQWYIGGYFASTLQISRLGSTPETLGINDIFITLGELMTKLEKYDTDPFTTFDKLHVQTTSSDS” here?
Its value is “soluble”.

Which “soluble on expression in E. coli” value does the source give for “GSPEFMELEIRPLFLVPDTNGFIDHLASLARLLESRKYILVVPLIVINELDGLAKGQETDHRAGGYARVVQEKARKSIEFLEQRFESRDSCLRALTSRGNELESIAFRSEDITGQLGNNDDLILSCCLHYCKDKAKDFMPASKEEPIRLLREVVLLTDDRNLRVKALTRNVPVRDIPAFLTWAQVG” here?
Its value is “soluble”.

Which “soluble on expression in E. coli” value does the source give for “GTEDTVIKVSVLRGPSVIAFADWLENPPIIDNKKVQVKVVDSPDLAQALLIKQETDIAVLPMINAANLYNKGIKIKLAGCPIWGTLYLVEKTPLKEPALYVFGNGTTPDILTRYYLGRQRLDYPLNYAFNTAGEITQGILAGKVNRAVLGEPFLSIALRKDSSLRITADLNHLTDNDTLGFAQTAVVYTPTMEKYRIAFEDALRASCQKAVRYPKETIHSLEEHGIFAQGALTPKSIERCKIYYLSAIEAKDAVMGFLRLIEQYEPKAVGGRLPDAGFIPEKQ” here?
The value was “soluble”.
